According to US20070172455A1:

Experiments:
[1] = molecular target: gp130 on F10.9 melanoma cells (UniProt Q00560); assay: cell-based or functional assay
[2] = molecular target: soluble form of gp130 (sgp130) (human) (UniProt P40189); assay: plate binding assay on sgp130 captured by anti-human gp130 mAb; rhuIL-6 at 500 ng/ml with sIL-6RδVal at 2 to 500 ng/ml, detected with rabbit anti-IL-6R; Scatchard plot
soluble form of gp130 (sgp130) (human), sequence (P40189 23-619 limits assumed): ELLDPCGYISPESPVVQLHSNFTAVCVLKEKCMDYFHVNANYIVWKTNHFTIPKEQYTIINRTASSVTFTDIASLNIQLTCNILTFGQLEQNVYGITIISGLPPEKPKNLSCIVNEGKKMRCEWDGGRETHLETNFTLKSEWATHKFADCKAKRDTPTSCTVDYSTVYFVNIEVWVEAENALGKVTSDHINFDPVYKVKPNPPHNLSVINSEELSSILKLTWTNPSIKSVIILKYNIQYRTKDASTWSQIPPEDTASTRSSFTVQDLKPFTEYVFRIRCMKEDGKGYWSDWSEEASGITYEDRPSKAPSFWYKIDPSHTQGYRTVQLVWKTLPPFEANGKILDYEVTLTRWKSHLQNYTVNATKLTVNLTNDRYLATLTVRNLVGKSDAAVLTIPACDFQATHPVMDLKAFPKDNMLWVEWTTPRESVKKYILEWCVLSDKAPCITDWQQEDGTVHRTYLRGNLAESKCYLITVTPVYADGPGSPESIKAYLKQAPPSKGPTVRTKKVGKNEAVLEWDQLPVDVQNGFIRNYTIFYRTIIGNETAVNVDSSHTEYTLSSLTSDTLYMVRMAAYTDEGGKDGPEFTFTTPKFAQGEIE

gp130 on F10.9 melanoma cells, sequence (Q00560 23-917 limits assumed): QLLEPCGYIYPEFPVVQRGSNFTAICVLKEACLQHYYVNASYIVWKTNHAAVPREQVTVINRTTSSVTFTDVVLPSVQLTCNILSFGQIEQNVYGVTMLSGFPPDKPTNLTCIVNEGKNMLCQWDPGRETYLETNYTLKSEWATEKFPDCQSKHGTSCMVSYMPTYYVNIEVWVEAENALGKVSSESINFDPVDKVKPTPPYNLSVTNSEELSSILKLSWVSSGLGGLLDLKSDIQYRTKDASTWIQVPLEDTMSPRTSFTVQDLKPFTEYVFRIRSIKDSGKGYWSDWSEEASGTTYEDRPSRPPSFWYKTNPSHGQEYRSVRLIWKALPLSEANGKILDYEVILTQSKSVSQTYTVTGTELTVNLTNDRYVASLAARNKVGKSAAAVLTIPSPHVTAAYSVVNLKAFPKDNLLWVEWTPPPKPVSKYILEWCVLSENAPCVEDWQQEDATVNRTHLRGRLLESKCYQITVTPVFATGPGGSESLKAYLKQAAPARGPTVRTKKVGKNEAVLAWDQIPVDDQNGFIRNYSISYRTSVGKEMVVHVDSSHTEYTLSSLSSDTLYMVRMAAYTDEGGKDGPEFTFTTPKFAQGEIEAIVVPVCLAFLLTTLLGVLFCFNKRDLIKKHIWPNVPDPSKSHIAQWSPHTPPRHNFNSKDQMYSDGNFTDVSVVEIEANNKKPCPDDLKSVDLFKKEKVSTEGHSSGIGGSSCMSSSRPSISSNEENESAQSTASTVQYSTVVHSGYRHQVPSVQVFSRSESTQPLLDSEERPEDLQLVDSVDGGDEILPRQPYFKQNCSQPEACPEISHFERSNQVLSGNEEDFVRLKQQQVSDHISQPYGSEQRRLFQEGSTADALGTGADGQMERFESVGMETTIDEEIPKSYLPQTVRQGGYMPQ

With “mixture of human IL-6 and sIL-6R (rhuIL-6 together with human sIL-6RδVal) (from UniProt P08887 20-356; P05231 29-212)” the maximal inhibition of F10.9 cells (growth inhibition, crystal violet, 4 days); IL-6 concentration in the mixture [1] was 7.5 nM, the maximal inhibition of F10.9 cells (growth inhibition, crystal violet, 4 days); sIL-6RδVal concentration in the mixture [1] was 2 nM and the Kd [2] was 0.26 nM.
